Experimental findings from paper PMC12669754 are described below.

This test addresses murine DNGR-1 (CLEC9A) expressed in B3Z NFAT reporter cells with SYK (mouse) (UniProt Q8BRU4).
Sequence of UniProt Q8BRU4 (Q8BRU4 whole entry): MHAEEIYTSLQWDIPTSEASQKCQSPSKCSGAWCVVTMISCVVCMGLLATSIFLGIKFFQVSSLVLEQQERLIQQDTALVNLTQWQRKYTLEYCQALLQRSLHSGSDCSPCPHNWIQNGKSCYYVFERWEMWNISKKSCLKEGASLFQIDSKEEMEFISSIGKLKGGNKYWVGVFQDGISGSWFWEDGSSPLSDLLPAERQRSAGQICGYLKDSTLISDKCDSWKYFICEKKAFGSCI

In turn, “DNGR-1 ligand (DNGR-1L), F-actin-myosin II complexes (from UniProt P68135 1-377)” came in with a β-galactosidase (NFAT-LacZ) reporter activity of B3Z cells expressing DNGR-1 and SYK, stimulated with DNGR-1L, dose-dependent; EC50 of 5 nM.
